The values that follow come from PMC13046825, “A gated hydrophobic funnel within BAX binds bioactive lipids to potentiate pro-apoptotic function” (Nature Communications, 2024).

The target of assay [1] is T1, BAX (Homo sapiens, UniProt Q07812). The assay can be described thus: 1H-15N HSQC NMR chemical shift perturbation; MST. Also on record: 15N-labeled BAX WT. The format is binding.
In assay [2] the target is T1, BAX. The assay can be described thus: microscale thermophoresis. The format is binding. Also on record: recombinant human BAX WT. On the technique in general: Microscale thermophoresis detects binding through changes in fluorescence in a small temperature gradient.
In assay [3] the target is T1, BAX. The assay can be described thus: microscale thermophoresis; also 1H-15N HSQC NMR, FLAMBE, LUV permeabilization. The format is binding. On the set-up: recombinant human BAX, without a tag or exogenous residues (Alexa Fluor 647-labeled for MST).
The target in assay [4] is T2, BAX^2S (Homo sapiens, UniProt Q07812, C62S/C126S).
T2 construct: recombinant human BAX, cysteine-replacement mutant
The assay can be described thus: thermal shift, FLAMBE and LUV permeabilization with purified BAX^2S (activation). The format is biochemical.

Assay [5] has as its target 5-TAMRA labeled BAK-BH3 peptide. Put plainly: FLAMBE (fluorescence polarisation). The note with it: BAKTAMRA 50 nM, read at 60 min, read off a plot. (In general: Fluorescence polarisation rises when a labelled molecule tumbles more slowly, as on binding a larger partner.)

T1 sequence (Q07812 whole entry): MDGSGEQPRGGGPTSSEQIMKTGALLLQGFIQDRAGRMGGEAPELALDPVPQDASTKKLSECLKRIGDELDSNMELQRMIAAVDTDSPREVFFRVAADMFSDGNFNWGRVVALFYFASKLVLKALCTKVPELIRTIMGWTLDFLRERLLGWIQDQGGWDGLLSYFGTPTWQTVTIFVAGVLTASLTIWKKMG
T2 sequence (Q07812 whole entry C62S/C126S): as the sequence (Q07812 whole entry) above, with C62S, C126S counted along it

As for `CCCCCC/C=C/C=O` [2t9, 2t-nonenal], the “1H-15N HSQC NMR chemical shift perturbation; MST” value in assay [1] is “nonenal and especially pentenal interacted with several accessible regions of BAX”.

In the case of `CCCCCCCC/C=C/C=O` [2t11, 2t-undecenal], the microscale thermophoresis entry in assay [2] is reported as “When subjected to MST, BAX^WT exhibited altered thermophoresis with each of the alkenals”.

On to `CCCCCCCCC/C=C/C=O` [2t12, 2t-dodecenal], for which the microscale thermophoresis result in assay [2] is “When subjected to MST, BAX^WT exhibited altered thermophoresis with each of the alkenals”.

Consider `CCCCCCCCCCCCC/C=C/C=O` [2t16, 2-trans-hexadecenal], for which the EC50 (as a rule, the midpoint of the concentration-response curve) in assay [3] amounted to 182 nM. The “thermal shift, FLAMBE and LUV permeabilization with purified BAX^2S (activation)” value in assay [4] was “BAX^2S remained sensitive to hexadecenal-mediated changes in melting temperature, pore formation, and synergy with BIM‑BH3 peptide”.

With “recombinant human BAX, wild type (from UniProt Q07812) L59C; C62S; C126S; L162C”, the response came to 200 mP in assay [5] (BAXα8 225 nM, 2t16 4.5 μM, no BIM-BH3); 260 mP in assay [5] (BAXα8 225 nM, BIM-BH3 0.15 μM, 2t16 4.5 μM); 260 mP in assay [5] (BAXα8 225 nM, BIM-BH3 0.15 μM, no 2t16); 200 mP in assay [5] (BAXα8 225 nM, no BIM-BH3, no 2t16).

For “recombinant human BAX, wild type (from UniProt Q07812) P168G”, the response in assay [5] (BAXP168G 65 nM, 2t16 3 μM, no BIM-BH3) worked out at 240 mP; in assay [5] (BAXP168G 65 nM, BIM-BH3 0.15 μM, 2t16 3 μM) it was 300 mP; in assay [5] (BAXP168G 65 nM, BIM-BH3 0.15 μM, no 2t16), 310 mP; in assay [5] (BAXP168G 65 nM, no BIM-BH3, no 2t16), 260 mP.
